{"source": "paper PMC9278117", "key": {"[1]": {"biological_target": "CB6 monoclonal antibody", "assay": "BLI"}, "[2]": {"biological_target": "4A8 monoclonal antibody", "assay": "BLI"}}}
{"substance": "SARS-CoV-2 S1-SpyTag monomer (from UniProt P0DTC2 16-685) (domain or fragment)", "values": [{"measurement": "Kd", "setting": "[1]", "value": 5.48, "unit": "nM"}, {"measurement": "Kd", "setting": "[2]", "value": 34.1, "unit": "nM"}]}
